In data set [1] the target is Prp43-Strep;Strep-Ntr1(1-120) (Saccharomyces cerevisiae …, UniProt P53131;Q06411 1-767;1-120, |). Nature of the data set: UV cross-linking.
The target in the next data set is Prp43-Strep (Saccharomyces cerevisiae S288c, UniProt P53131 1-767). Kind of data set: UV cross-linking.

The results in this text go back to publication PMC3902948.

Chain of Prp43-Strep;Strep-Ntr1(1-120) (P53131 whole entry, chain 1 of 2): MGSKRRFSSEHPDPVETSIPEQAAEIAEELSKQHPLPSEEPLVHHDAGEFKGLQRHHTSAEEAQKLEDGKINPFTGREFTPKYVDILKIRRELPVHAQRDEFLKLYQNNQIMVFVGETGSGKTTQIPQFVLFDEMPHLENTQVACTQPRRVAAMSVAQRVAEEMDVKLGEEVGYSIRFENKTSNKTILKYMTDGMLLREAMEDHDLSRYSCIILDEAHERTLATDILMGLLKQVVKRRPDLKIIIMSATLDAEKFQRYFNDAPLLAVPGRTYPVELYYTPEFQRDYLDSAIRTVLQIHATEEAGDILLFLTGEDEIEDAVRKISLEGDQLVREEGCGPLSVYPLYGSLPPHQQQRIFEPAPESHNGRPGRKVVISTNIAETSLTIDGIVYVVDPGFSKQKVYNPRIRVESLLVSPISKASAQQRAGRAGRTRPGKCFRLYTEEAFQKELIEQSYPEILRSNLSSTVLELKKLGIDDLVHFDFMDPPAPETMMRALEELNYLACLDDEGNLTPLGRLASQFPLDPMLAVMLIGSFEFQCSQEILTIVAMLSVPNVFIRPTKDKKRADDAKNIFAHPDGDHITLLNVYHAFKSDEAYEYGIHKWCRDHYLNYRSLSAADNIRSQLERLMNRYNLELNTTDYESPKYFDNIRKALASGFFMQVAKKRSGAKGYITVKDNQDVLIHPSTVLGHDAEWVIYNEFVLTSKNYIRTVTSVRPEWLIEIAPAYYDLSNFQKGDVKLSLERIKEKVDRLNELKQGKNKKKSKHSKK
Chain of Prp43-Strep;Strep-Ntr1(1-120) (Q06411 1-120, chain 2 of 2): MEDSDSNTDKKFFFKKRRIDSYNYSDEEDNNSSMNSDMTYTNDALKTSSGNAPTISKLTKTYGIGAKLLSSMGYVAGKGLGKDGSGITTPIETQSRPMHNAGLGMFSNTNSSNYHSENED
Chain of Prp43-Strep (P53131 whole entry): as the sequence (P53131 whole entry, chain 1 of 2) above

For the molecule GACGGGCUGUUGGUGAUGGAC (ssRNA) [21-mer ssRNA], the binding result (in data set [1]; with Prp43-Strep) was “binds” in each case.
